Source: paper PMC3105061

Biological target: fluorescein labeled SecYEG reconstituted in proteoliposomes (E. coli) (UniProt P0AGA2)
Experiment: FRET or BRET; DCFBA-FRET on single proteoliposomes; SecYEG-FM (donor, 488 nm excitation) in PLs, proOmpA(C282)-DhfR-Atto647N (acceptor) in complex with SecB, SecA, NADPH and methotrexate, with or without ATP; in hydrogel of gelator 1 and in suspension; stalled translocation intermediate

Sequence of UniProt P0AGA2 (P0AGA2 whole entry, chain 1 of 3): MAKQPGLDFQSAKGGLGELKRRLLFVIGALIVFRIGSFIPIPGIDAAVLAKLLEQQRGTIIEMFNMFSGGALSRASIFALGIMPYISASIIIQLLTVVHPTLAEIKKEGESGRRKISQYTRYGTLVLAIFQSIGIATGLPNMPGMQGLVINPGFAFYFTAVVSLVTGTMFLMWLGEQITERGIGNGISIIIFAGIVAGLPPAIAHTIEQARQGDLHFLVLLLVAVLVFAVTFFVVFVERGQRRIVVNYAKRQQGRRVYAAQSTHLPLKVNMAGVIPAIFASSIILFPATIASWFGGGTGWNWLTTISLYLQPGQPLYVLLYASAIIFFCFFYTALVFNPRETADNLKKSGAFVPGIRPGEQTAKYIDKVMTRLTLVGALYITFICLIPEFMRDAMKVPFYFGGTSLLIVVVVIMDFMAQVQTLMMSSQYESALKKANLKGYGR
Sequence of UniProt P0AGA2 (P0AG96 whole entry, chain 2 of 3, further chain): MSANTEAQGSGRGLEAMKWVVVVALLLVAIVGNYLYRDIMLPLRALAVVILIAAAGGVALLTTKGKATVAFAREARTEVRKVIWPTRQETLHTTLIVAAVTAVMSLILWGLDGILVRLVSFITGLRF
Sequence of UniProt P0AGA2 (P0AG99 whole entry, chain 3 of 3, further chain): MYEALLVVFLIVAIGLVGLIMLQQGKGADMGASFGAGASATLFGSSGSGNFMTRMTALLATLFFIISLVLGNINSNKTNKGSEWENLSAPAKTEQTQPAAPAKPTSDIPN

How did the average FRET efficiency per liposome in the hydrogel compared to suspension turn out when “fusion protein proOmpA(C282)-DhfR-Atto647N” was run?
Its average FRET efficiency per liposome in the hydrogel compared to suspension is 50%.
